Measured values: article PMC9618391 (2022)

B1: wild-type human sodium/iodide symporter (hNIS) [human] / μ1B (AP1M2) expressed from cDNA in COS-7 cells [not stated] (parent complex)
chain 1: MEAVETGERPTFGAWDYGVFALMLLVSTGIGLWVGLARGGQRSAEDFFTGGRRLAALPVGLSLSASFMSAVQVLGVPSEAYRYGLKFLWMCLGQLLNSVLTALLFMPVFYRLGLTSTYEYLEMRFSRAVRLCGTLQYIVATMLYTGIVIYAPALILNQVTGLDIWASLLSTGIICTFYTAVGGMKAVVWTDVFQVVVMLSGFWVVLARGVMLVGGPRQVLTLAQNHSRINLMDFNPDPRSRYTFWTFVVGGTLVWLSMYGVNQAQVQRYVACRTEKQAKLALLINQVGLFLIVSSAACCGIVMFVFYTDCDPLLLGRISAPDQYMPLLVLDIFEDLPGVPGLFLACAYSGTLSTASTSINAMAAVTVEDLIKPRLRSLAPRKLVIISKGLSLIYGSACLTVAALSSLLGGGVLQGSFTVMGVISGPLLGAFILGMFLPACNTPGVLAGLGAGLALSLWVALGATLYPPSEQTMRVLPSSAARCVALSVNASGLLDPALLPANDSSRAPSSGMDASRPALADSFYAISYLYYGALGTLTTVLCGALISCLTGPTKRSTLAPGLLWWDLARQTASVAPKEEVAILDDNLVKGPEELPTGNKKPPGFLPTNEDRLFFLGQKELEGAGSWTPCVGHDGGRDQQETNL
chain 2: MSASAVFILDVKGKPLISRNYKGDVAMSKIEHFMPLLVQREEEGALAPLLSHGQVHFLWIKHSNLYLVATTSKNANASLVYSFLYKTIEVFCEYFKELEEESIRDNFVIVYELLDELMDFGFPQTTDSKILQEYITQQSNKLETGKSRVPPTVTNAVSWRSEGIKYKKNEVFIDVIESVNLLVNANGSVLLSEIVGTIKLKVFLSGMPELRLGLNDRVLFELTGRSKNKSVELEDVKFHQCVRLSRFDNDRTISFIPPDGDFELMSYRLSTQVKPLIWIESVIEKFSHSRVEIMVKAKGQFKKQSVANGVEISVPVPSDADSPRFKTSVGSAKYVPERNVVIWSIKSFPGGKEYLMRAHFGLPSVEKEEVEGRPPIGVKFEIPYFTVSGIQVRYMKIIEKSGYQALPWVRYITQSGDYQLRTS

Variants of: B1
Experiment: co-immunoprecipitation with Western blot quantification; COS-7 cells cotransfected with hNIS and μ1B; IP α-μ1B, WB α-hNIS; parent: 100; read off a plot

Row | percent of parent | Variant
1 | ~100 % Relative to hNIS WT | chain 1 L587A
2 | ~84 % Relative to hNIS WT | chain 1 L594A
3 | ~5 % Relative to hNIS WT | chain 1 L583A
4 | ~61 % Relative to hNIS WT | chain 1 Y118A
5 | ~60 % Relative to hNIS WT | chain 1 L121A
6 | ~32 % Relative to hNIS WT | chain 1 L562A, chain 1 L563A
7 | ~83 % Relative to hNIS WT | chain 1 Y120A
